For test [1], the target named is type-L calcium channels, verapamil site (rat cerebral cortex homogenates) (rat). As to the kind of experiment: specific binding of 0.5 nM (3H)(-)D 888 left with the MIXTURE of 1.0% Argireline and 1 x 10^-4 M magnesium gluconate; rat cerebral cortex membranes; replicate 1.
The target is the same in test [2]. As to the kind of experiment: specific binding of 0.5 nM (3H)(-)D 888 left with 1.0% Argireline; rat cerebral cortex membranes, scintillation counting.
The target is the same in test [3]. As to the kind of experiment: specific binding of 0.5 nM (3H)(-)D 888 left with 1.0% Argireline; rat cerebral cortex membranes, scintillation counting; replicate 3.
Test [4] has the same target. As to the kind of experiment: inhibition of specific binding of (3H)(-)D 888 by 5% Argireline; rat cerebral cortex membranes.
Test [5] shares this target. As to the kind of experiment: specific binding of 0.5 nM (3H)(-)D 888 left with the MIXTURE of 1.0% Argireline and 1 x 10^-4 M magnesium gluconate; rat cerebral cortex membranes; replicate 3.
The target is the same in test [6]. As to the kind of experiment: specific binding of 0.5 nM (3H)(-)D 888 left with 1.0% Argireline; rat cerebral cortex membranes, scintillation counting; replicate 2.
Test [7] shares this target. As to the kind of experiment: specific binding of 0.5 nM (3H)(-)D 888 left with 1.0% Argireline; rat cerebral cortex membranes, scintillation counting; replicate 1.
For test [8] the target is unchanged. As to the kind of experiment: specific binding of 0.5 nM (3H)(-)D 888 left with the MIXTURE of 1.0% Argireline and 1 x 10^-4 M magnesium gluconate; rat cerebral cortex membranes.
Test [9] shares this target. As to the kind of experiment: inhibition of specific binding of 0.5 nM (3H)(-)D 888 by 1.0% Argireline; rat cerebral cortex membranes, scintillation counting.
The target is the same in test [10]. As to the kind of experiment: inhibition of specific binding of (3H)(-)D 888 by 10% Argireline; rat cerebral cortex membranes.
The target is the same in test [11]. As to the kind of experiment: inhibition of specific binding of 0.5 nM (3H)(-)D 888 by the MIXTURE of 1.0% Argireline and 1 x 10^-4 M magnesium gluconate; rat cerebral cortex membranes.
The target is the same in test [12]. As to the kind of experiment: specific binding of 0.5 nM (3H)(-)D 888 left with the MIXTURE of 1.0% Argireline and 1 x 10^-4 M magnesium gluconate; rat cerebral cortex membranes; replicate 2.

On to Ac-EEMQRR-NH2, for which the % of binding amounted to 81.6% in [1]; 99.9% in test [3]; 85.1% in test [5]; 93.1% in test [6]; 95.1% in test [7]; 85.3% in [12]. Besides, the Mean % of binding in test [2] was 96.1%; in test [8], 84%. The results for the mean percentage of inhibition in test [4] and in test [10] were 36% and 52%, respectively. Besides, the figures for the Mean % of inhibition in [9] and in test [11] were 4% and 16%, respectively.

The values are drawn from patent US20040147443A1.
